Source: patent US20160138036A1 (SNU R AND DB FOUNDATION, published 2016)

How the values were obtained:
[1] = molecular target: T1, BdSOC1 (Brachypodium distachyon SUPPRESSOR OF OVEREXPRESSOR OF CONSTANS 1) transcription factor (Brachypodium distachyon, 35S-Met label in the pull-down assay (in vitro translated)); assay: BiFC (split YFP fusions) in Brachypodium protoplasts
T1 construct: Fused to an EYFP half in BiFC; In vitro translated and 35S-labeled in the pull-down; also called Bradi1g77020; Brachypodium SOC1
Description: (a) in vitro pull-down assays. The BdSOC1 protein was prepared as recombinant BdSOC1-MBP fusion in E. coli cells. The ³⁵S-labeled BdSOC1 polypeptides were prepared by in vitro translation. Part of Coomassie-stained gel is shown (bottom panel). (b) BiFC assays. Partial YFP fusion constructs were transiently expressed in Brachypodium protoplasts. Scale bars=10 μm.
(§1) BiFC assays were carried out as described previously (Hong et al., J. Biol. Chem. 286, 1659-1668, 2011). A full-size SOC1 gene was fused in-frame to the 5′ end of a gene sequence encoding the C-terminal half of EYFP in the pSATN-cEYFP-C1 vector (E3082). Truncated SOC1 gene sequences were fused in-frame to the 5′ end of a gene sequence encoding the N-terminal half of EYFP in the pSATN-nEYFP-C1 vector (E3081). The expression constructs were cotransformed into Arabidopsis protoplasts. Expression of the fusion constructs was monitored by fluorescence microscopy using a Zeiss LSM510 confocal microscope (Carl Zeiss MicroImaging GmbH, Jena, Germany). The BdSOC1 gene constructs were prepared similar to the Arabidopsis SOC1 gene constructs and transiently expressed in Brachypodium protoplasts.

[2] = molecular target: T2, SOC1 (SUPPRESSOR OF OVEREXPRESSOR OF CONSTANS 1) transcription factor (Arabidopsis thaliana, UniProt O64645 1-214, 35S-Met label in the pull-down assay (in vitro translated)); assay: BiFC (split EYFP fusions) in Arabidopsis protoplasts
T2 construct: Full-size MADS box transcription factor; In yeast two-hybrid it was fused to GAL4 AD or BD (pGADT7/pGBKT7); In BiFC it was fused to a half of EYFP; In the pull-down it was in vitro translated from pGADT7 and 35S-labeled; also called Arabidopsis SOC1; At2g45660
Description: as §1

T1 sequence (chain, as listed by the source limits assumed): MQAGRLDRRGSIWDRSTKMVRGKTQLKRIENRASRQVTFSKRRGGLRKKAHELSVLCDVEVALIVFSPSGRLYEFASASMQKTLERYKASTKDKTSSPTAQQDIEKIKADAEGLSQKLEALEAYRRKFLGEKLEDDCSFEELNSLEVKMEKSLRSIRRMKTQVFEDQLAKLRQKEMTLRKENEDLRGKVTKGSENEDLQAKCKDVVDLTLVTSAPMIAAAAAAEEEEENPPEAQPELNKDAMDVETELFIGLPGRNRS
T2 sequence (O64645 whole entry, the tested form may be a part): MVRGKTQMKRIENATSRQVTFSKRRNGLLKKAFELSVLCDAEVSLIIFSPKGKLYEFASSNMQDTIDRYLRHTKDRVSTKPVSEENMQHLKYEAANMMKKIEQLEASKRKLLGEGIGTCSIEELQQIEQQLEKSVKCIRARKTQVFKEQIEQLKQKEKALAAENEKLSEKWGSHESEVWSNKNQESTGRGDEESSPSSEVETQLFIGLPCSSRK

Binder | binding result [1] | binding result [2]
BdS-IK truncated BdSOC1 form (35S-Met label in the pull-down assay (in vitro translated), An artificial start codon was added; also called BdS-MK2 (primer name)) KAHELSVLCDVEVALIVFSPSGRLYEFASASMQKTLERYKASTKDKTSSPTAQQDIEKIKADAEGLSQKLEALEAYRRKFLGEKLEDDCSFEELNSLEVKMEKSLRSIRRMKTQVFEDQLAKLRQKEMTLRKENEDLRGK | binds | –
S-IK truncated SOC1 form (35S-Met label in the pull-down assay (in vitro translated), It was fused to GAL4 domain or EYFP half in yeast and BiFC assays; also called SOC1 a-siPEP) KKAFELSVLCDAEVSLIIFSPKGKLYEFASSNMQDTIDRYLRHTKDRVSTKPVSEENMQHLKYEAANMMKKIEQLEASKRKLLGEGIGTCSIEELQQIEQQLEKSVKCIRARKTQVFKEQIEQLKQKEKALAAENEKLSEK | – | binds

The next lines start with the values.

binding result [1] | binding result [2] | Binder
– | binds | S-K truncated SOC1 form (35S-Met label in the pull-down assay (in vitro translated), It was fused to GAL4 domain or EYFP half in yeast and BiFC assays; also called S-K form; SOC1 a-siPEP) VSEENMQHLKYEAANMMKKIEQLEASKRKLLGEGIGTCSIEELQQIEQQLEKSVKCIRARKTQVFKEQIEQLKQKEKALAAENEKLSEK
binds | – | BdS-K truncated BdSOC1 form (35S-Met label in the pull-down assay (in vitro translated), An artificial start codon was added) TAQQDIEKIKADAEGLSQKLEALEAYRRKFLGEKLEDDCSFEELNSLEVKMEKSLRSIRRMKTQVFEDQLAKLRQKEMTLRKENEDLRGK
